Test system: HEK-293 cells
Experiment: Fluorescence versus membrane potential under whole-cell voltage clamp (ramp, step, frequency response, noise)
Assay type: cell-based, human
Method: Fluorescence of Arch 3 in HEK 293 cells was readily imaged in an inverted fluorescence microscope with red illumination (λ=640 nm, I=540 W/cm^2), a high numerical aperture objective, a Cy5 filter set, and an EMCCD camera. […] Cells not expressing Arch were not fluorescent.
HEK-293 cells were grown at 37° C., 5% CO2, in DMEM supplemented with 10% FBS and penicillin-streptomycin. Plasmids were transfected using LIPOFECTAMINE™ and PLUS reagent (Invitrogen) following the manufacturer's instructions, and assayed between 48-72 hours later. The day before recording, cells were re-plated onto glass-bottom dishes (MatTek) at a density of ˜5000 cells/cm^2.
The concentration of endogenous retinal in the HEK cells was not known, so the cells were supplemented with retinal by diluting stock retinal solutions (40 mM, DMSO) in growth medium to a final concentration of 5 μM, and then placing the cells back in the incubator for 1-3 hours. All imaging and electrophysiology were performed in Tyrode's buffer (containing, in mM: 125 NaCl, 2 KCl, 3 CaCl2, 1 MgCl2, 10 HEPES, 30 glucose pH 7.3, and adjusted to 305-310 mOsm with sucrose). Only HEK cells having reversal potentials between −10 and −40 mV were included in the analysis.
Simultaneous fluorescence and whole-cell patch clamp recordings were acquired on a home-built, inverted epifluorescence microscope at room temperature. A diode laser operating at 100 mW, 640 nm (CrystaLaser, DL638-100-O) provided wide-field illumination at an intensity typically between 500-2000 W/cm^2. To minimize background signal from out-of-focus debris, illumination was often performed in through-the-objective total internal reflection fluorescence (TIRF) mode. Fluorescence emission was collected using a 60×, 1.45 NA oil immersion objective (Olympus), and separated from scattered excitation using a 660-760 nm bandpass emission filter (Chroma). For fast imaging of dynamic fluorescence responses and action potentials, images were acquired on an Andor iXon^+ 860 camera operating at up to 2,000 frames/s (using a small region of interest and pixel binning). Slower images with higher spatial resolution were acquired on an Andor iXon^+ 897 EMCCD. Custom software written in LabView (National Instruments) was used to synchronize illumination, collection of images, recording of membrane potential and cell current, and application of electrical stimuli to the cell.
Filamented glass micropipettes (WPI) were pulled to a tip resistance of 3-10 MΩ, fire polished, and filled with internal solution (containing, in mM: 125 Potassium gluconate, 8 NaCl, 0.6 MgCl2, 0.1 CaCl2, 1 EGTA, 10 HEPES, 4 Mg-ATP, 0.4 Na-GTP, pH 7.3; adjusted to 295 mOsm with sucrose). The micropipettes were positioned with a Burleigh PCS 5000 micromanipulator. Whole-cell, voltage clamp recordings were acquired using an AxoPatch 200B amplifier (Molecular Devices), filtered at 2 kHz with the internal Bessel filter, and digitized with a National Instruments PCIE-6323 acquisition board at 10 kHz. Ambient 60 Hz noise was removed using a HumBug Noise Eliminator (AutoMate Scientific). For experiments requiring rapid modulation of transmembrane potential, series resistance and whole-cell capacitance were predicted to 95% and corrected to ˜50%. Electrical stimuli were generated using the PCIE-6323 acquisition board and sent to the AXOPATCH™, which then applied these signals in either constant current or constant voltage mode.
To measure fluorescence as a function of membrane potential, a triangle wave was applied, with amplitude from −150 mV to +150 mV and period 12 s, with video recording at 100 ms per frame. A pixel weight matrix was calculated according to Eq. S2 and applied to the movie images to generate a fluorescence number for each frame. These fluorescence values were divided by their minimum value (at V=−150 mV). The result is plotted as a function of Vin FIGS. 7 and 8. […]

B1: Arch 3 WT: Archaerhodopsin 3, light-driven proton pump from Halorubrum sodomense, used as fluorescent voltage indicator (protein)
chain: MDPIALQAGYDLLGDGRPETLWLGIGTLLMLIGTFYFLVRGWGVTDKDAREYYAVTILVPGIASAAYLSMFFGIGLTEVTVGGEMLDIYYARYADWLFTTPLLLLDLALLAKVDRVTIGTLVGVDALMIVTGLIGALSHTAIARYSWWLFSTICMIVVLYFLATSLRSAAKERGPEVASTFNTLTALVLVLWTAYPILWIIGTEGAGVVGLGIETLLFMVLDVTAKVGFGFILLRSRAILGDTEAPEPSAGADVSAAD
modifications: Halorubrum sodomense
notes: Archaerhodopsin 3, light-driven proton pump from Halorubrum sodomense, used as fluorescent voltage indicator
- voltage steps resolved/reported (HEK cells): 10 mV
- photobleaching (continuous 10-minute exposure, 640 nm, 540 W/cm2): 17%
- fluorescence oscillation amplitude retained relative to low-frequency amplitude (sinusoidal membrane potential, f=1 kHz): 55%
- response time to a step in membrane potential (steps between −70 mV and +30 mV): < 0.5 ms
- response of fluorescence to a step in membrane potential, time (time resolution of imaging system, rising and falling edge): ≤ 500 μs
- increase of fluorescence (fold/factor) between −150 mV and +150 mV (whole-cell voltage clamp): 2

Source: patent US9057734B2, “Optogenetic probes for measuring membrane potential” (President and Fellows of Harvard College, priority 2010, dated 2015)
